According to patent publication US20180142038A1:

Key:
[1] = target: Ab-A lot 9 (load; eluate from a ceramic hydroxyapatite column); assay: AGV HTRF assay as in Example 6, load of the Ab-1 NHS Sepharose column
[2] = target: Ab-A lot 9 (load; eluate from a ceramic hydroxyapatite column); assay: AGV HTRF assay as in Example 6, load of the Ab-1 Streptavidin Plus Ultralink column
Ab-A lot 1 = assay: AGV HTRF assay (antibody 3 nM, antigen 1 nM, Eu anti-rabbit Fc donor, anti-human XL665 acceptor), signal relative to Ab-A lot 2
[3] = target: Ab-A lot 9, pooled flow-through of the Ab-1 functionalized Pierce Streptavidin Plus Ultralink resin; assay: AGV HTRF assay as in Example 6, pooled flow-through of the Ab-1 Streptavidin Plus Ultralink column
[4] = target: Ab-A lot 9, pooled flow-through of the Ab-1 functionalized GE NHS-activated Sepharose 4 Fast Flow resin; assay: AGV HTRF assay as in Example 6, pooled flow-through of the Ab-1 NHS Sepharose column

Glycovariant signal in Load (POC) [1]: 9.3 POC
Glycovariant signal in Load (POC) [2]: 9.3 POC
percentage of control (POC), against Ab-A lot 2 (% of control (POC)) (Ab-A lot 1): 25
Glycovariant signal in Flow-Through (POC) [3]: 1.2 POC
Glycovariant signal in Flow-Through (POC) [4]: 6.3 POC
B1: Ab1 (antibody, V domains shown)
VH: QEQLVESGGGLVQPGASLTLTCTASGFSFSNTNYMCWVRQAPGRGLEWVGCMPVGFIASTFYATWAKGRSAISKSSSTAVTLQMTSLTVADTATYFCARESGSGWALNLWGQGTLVTVSS
VL: DPVLTQTPSPVSAAVGGTVTISCQASESVESGNWLAWYQQKPGQPPKLLIYYTSTLASGVPSRFKGSGSGAHFTLTISGVQCDDAATYYCQGAFYGVNTFGGGTEVVVKR
